From patent US20220195455

Key:
[1] = biological target: T1, FRS2 octapeptide GSCCSCPD
T1 chain: GSCCSCPD

[2] = biological target: T2, ARL6 octapeptide GLLDRLSV
T2 chain: GLLDRLSV

[3] = biological target: T3, ARF6 octapeptide GKVLSKIF
T3 chain: GKVLSKIF

RP2 octapeptide GCFFSKRR = biological target: T4, RP2 octapeptide GCFFSKRR
T4 chain: GCFFSKRR

[4] = biological target: T5, DEGS1 octapeptide GSRVSRED
T5 chain: GSRVSRED

FYN octapeptide GCVQCKDK = biological target: T6, FYN octapeptide GCVQCKDK
T6 chain: GCVQCKDK

LYN octapeptide GCIKSKGK = biological target: T7, LYN octapeptide GCIKSKGK
T7 chain: GCIKSKGK

[5] = biological target: T8, MARCKSL1 octapeptide GSQSSKAP
T8 chain: GSQSSKAP

[6] = biological target: T9, SCYL3 octapeptide GSENSALK
T9 chain: GSENSALK

[7] = biological target: T10, Src8(G2A) mutant octapeptide Ala-Ser-Asn-Lys-Ser-Lys-Pro-Lys
T10 chain: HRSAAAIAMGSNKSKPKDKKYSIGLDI

[8] = biological target: T11, NAA40 octapeptide GRKSSKAK
T11 chain: GRKSSKAK

[9] = biological target: T12, PSMC1 octapeptide GQSQSGGH
T12 chain: GQSQSGGH

[10] = biological target: T13, DDX46 octapeptide GRESRHYR
T13 chain: GRESRHYR

[11] = biological target: T14, LANCL2 octapeptide GETMSKRL
T14 chain: GETMSKRL

[12] = biological target: T15, REP15 octapeptide GQKASQQL
T15 chain: GQKASQQL

[13] = biological target: T16, MARCKS octapeptide GAQFSKTA
T16 chain: GAQFSKTA

[14] = biological target: T17, YES1 octapeptide GCIKSKEN
T17 chain: GCIKSKEN

[15] = biological target: T18, RNF11 octapeptide GNCLKSPT
T18 chain: GNCLKSPT

[16] = biological target: T19, ARL2 octapeptide GLLTILKK
T19 chain: GLLTILKK

[17] = biological target: T20, ZNRF2 octapeptide GAKQSGPA
T20 chain: GAKQSGPA

[18] = biological target: T21, NDUFB7 octapeptide GAHLVRRY
T21 chain: GAHLVRRY

[19] = biological target: T22, NDUFAF4 octapeptide GALVIRGI
T22 chain: GALVIRGI

[20] = biological target: T23, GNAZ octapeptide GCRQSSEE
T23 chain: GCRQSSEE

LNP octapeptide GGLFSRWR = biological target: T24, LNP octapeptide GGLFSRWR
T24 chain: GGLFSRWR

[21] = biological target: T25, NOL3 octapeptide GNAQERPS
T25 chain: GNAQERPS

B1: N-myristoyltransferase 1, full length (protein)
chain: MADESETAVKPPAPPLPQMMEGNGNGHEHCSDCENEEDNSYNRGGLSPANDTGAKKKKKKQKKKKEKGSETDSAQDQPVKMNSLPAERIQEIQKAIELFSVGQGPAKTMEEASKRSYQFWDTQPVPKLGEVVNTHGPVEPDKDNIRQEPYTLPQGFTWDALDLGDRGVLKELYTLLNENYVEDDDNMFRFDYSPEFLLWALRPPGWLPQWHCGVRVVSSRKLVGFISAIPANIHIYDTEKKMVEINFLCVHKKLRSKRVAPVLIREITRRVHLEGIFQAVYTAGVVLPKPVGTCRYWHRSLNPRKLIEVKFSHLSRNMTMQRTMKLYRLPETPKTAGLRPMETKDIPVVHQLLTRYLKQFHLTPVMSQEEVEHWFYPQENIIDTFVVENANGEVTDFLSFYTLPSTIMNHPTHKSLKAAYSFYNVHTQTPLLDLMSDALVLAKMKGFDVFNALDLMENKTFLEKLKFGIGDGNLQYYLYNWKCPSMGAEKVGLVLQ
[1]
  Km: 28.2 µM
  Vmax: 54.7 µM/min
[2]
  Km: < 0.1 µM
  Vmax: 1.8 µM/min
[3]
  Km: 4.4 µM
  Vmax: 13.6 µM/min
RP2 octapeptide GCFFSKRR
  Km: 13.6 µM
  Vmax: 60.8 µM/min
[4]
  Km: 79.2 µM
  Vmax: 12.9 µM/min
FYN octapeptide GCVQCKDK
  Km: 5.2 µM
  Vmax: 54.9 µM/min
LYN octapeptide GCIKSKGK
  Km: 22.5 µM
  Vmax: 64.7 µM/min
[5]
  Km: 11.7 µM
  Vmax: 6.6 µM/min
[6]
  Km: 0.8 µM
  Vmax: 1.7 µM/min
[7]
  Km: < 0.1 µM
  Vmax: 1 µM/min
[8]
  Km: 1.2 µM
  Vmax: 1.8 µM/min
[9]
  Km: 40 µM
  Vmax: 9.6 µM/min
[10]
  Km: < 0.1 µM
  Vmax: 2 µM/min
[11]
  Km: 13 µM
  Vmax: 5.3 µM/min
[12]
  Km: 15.7 µM
  Vmax: 3.4 µM/min
[13]
  Km: 38.4 µM
  Vmax: 6.4 µM/min
[14]
  Km: 14.4 µM
  Vmax: 61 µM/min
[15]
  Km: 16.7 µM
  Vmax: 61.1 µM/min
[16]
  Km: 0.4 µM
  Vmax: 1.2 µM/min
[17]
  Km: 2 µM
  Vmax: 1.6 µM/min
[18]
  Km: 16.4 µM
  Vmax: 2.8 µM/min
[19]
  Km: 0.5 µM
  Vmax: 1.2 µM/min
[20]
  Km: 15.7 µM
  Vmax: 64.4 µM/min
LNP octapeptide GGLFSRWR
  Km: 10.3 µM
  Vmax: 21.9 µM/min
[21]
  Km: 1.4 µM
  Vmax: 2 µM/min
